target: PPARg:RXRa (Homo sapiens, UniProt P37231;P19793 full;full); assay: no ligand; PBM; 180 nM : 90 nM RXRa; PBS pH 7.4, 2% milk, 0.02% Triton X-100, 1 mM DTT, BSA, 0.4 mg/ml salmon testes DNA; settings: tags: His kept;His cleaved; copies: 1;1; label: surface-attached array probe
Sequence (P37231 29-505, chain 1 of 2): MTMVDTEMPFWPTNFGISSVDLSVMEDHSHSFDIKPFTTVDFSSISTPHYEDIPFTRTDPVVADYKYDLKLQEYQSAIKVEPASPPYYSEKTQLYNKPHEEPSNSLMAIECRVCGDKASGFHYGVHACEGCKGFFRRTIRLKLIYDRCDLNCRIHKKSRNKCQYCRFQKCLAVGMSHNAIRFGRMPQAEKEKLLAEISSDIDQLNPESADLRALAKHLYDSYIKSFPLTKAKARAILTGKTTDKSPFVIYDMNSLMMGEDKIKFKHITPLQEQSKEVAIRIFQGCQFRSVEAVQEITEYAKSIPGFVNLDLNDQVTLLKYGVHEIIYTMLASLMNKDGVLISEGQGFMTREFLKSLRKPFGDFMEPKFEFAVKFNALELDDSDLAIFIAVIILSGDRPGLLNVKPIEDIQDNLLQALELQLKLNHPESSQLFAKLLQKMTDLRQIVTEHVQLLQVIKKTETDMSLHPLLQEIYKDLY
Sequence (P19793 whole entry, chain 2 of 2): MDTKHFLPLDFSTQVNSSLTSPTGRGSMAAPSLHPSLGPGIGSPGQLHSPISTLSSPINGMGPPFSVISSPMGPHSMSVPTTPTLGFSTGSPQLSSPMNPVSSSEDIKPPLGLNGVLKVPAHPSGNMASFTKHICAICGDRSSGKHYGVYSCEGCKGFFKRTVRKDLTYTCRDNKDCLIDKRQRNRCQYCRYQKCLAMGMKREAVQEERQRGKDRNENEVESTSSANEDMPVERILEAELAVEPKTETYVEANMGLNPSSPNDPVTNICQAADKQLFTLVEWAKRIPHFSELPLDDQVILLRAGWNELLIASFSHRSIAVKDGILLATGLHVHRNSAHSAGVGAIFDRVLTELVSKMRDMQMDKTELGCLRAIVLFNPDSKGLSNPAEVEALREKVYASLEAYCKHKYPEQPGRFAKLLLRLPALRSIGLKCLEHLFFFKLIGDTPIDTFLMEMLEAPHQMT

Row | Binder | binding signal
1 | NRC3_wobSeed97_DR4_G27A_o1 (dsDNA) DNA 1: GCCAAACTAGGTCACGAAAGGTCAAAATCGAATGACGCGATTGACAGCGTAGAATGAAGG DNA 2: CCTTCATTCTACGCTGTCAATCGCGTCATTCGATTTTGACCTTTCGTGACCTAGTTTGGC | 10.9 PBM z-score against 500 random probes
2 | NRC3_wobSeed97_DR4_C7G_o1 (dsDNA) DNA 1: GCCAAAGTAGGTCACGAAAGGTCAAAGTCGAATGACGCGATTGACAGCGTAGAATGAAGG DNA 2: CCTTCATTCTACGCTGTCAATCGCGTCATTCGACTTTGACCTTTCGTGACCTACTTTGGC | 10.8 PBM z-score against 500 random probes
3 | NRC3_wobSeed97_DR4_C29T_o1 (dsDNA) DNA 1: GCCAAACTAGGTCACGAAAGGTCAAAGTTGAATGACGCGATTGACAGCGTAGAATGAAGG DNA 2: CCTTCATTCTACGCTGTCAATCGCGTCATTCAACTTTGACCTTTCGTGACCTAGTTTGGC | 10.9 PBM z-score against 500 random probes
4 | NRC3_wobSeed97_DR4_A4T_o1 (dsDNA) DNA 1: GCCTAACTAGGTCACGAAAGGTCAAAGTCGAATGACGCGATTGACAGCGTAGAATGAAGG DNA 2: CCTTCATTCTACGCTGTCAATCGCGTCATTCGACTTTGACCTTTCGTGACCTAGTTAGGC | 10.8 PBM z-score against 500 random probes
5 | NRC3_wobSeed25_DR1_A23C_o1 (dsDNA) DNA 1: GCCAAACTAGGTCAAAGGTCAACGTCGAGCCAACCAGCGATTGACAGCGTAGAATGAAGG DNA 2: CCTTCATTCTACGCTGTCAATCGCTGGTTGGCTCGACGTTGACCTTTGACCTAGTTTGGC | 14.2 PBM z-score against 500 random probes
6 | NRC3_wobSeed33_DR1_A13G_o1 (dsDNA) DNA 1: GCATCTCTAGGTGAAAGTTCAGTGAATCCCGAGGATGCGATTGACAGCGTAGAATGAAGG DNA 2: CCTTCATTCTACGCTGTCAATCGCATCCTCGGGATTCACTGAACTTTCACCTAGAGATGC | 10.7 PBM z-score against 500 random probes
7 | NRC3_wobSeed39_DR1_G22C_o1 (dsDNA) DNA 1: GCCGAACTAGGTCAAAGGACACTGAAAGGCGACGTAGCGATTGACAGCGTAGAATGAAGG DNA 2: CCTTCATTCTACGCTGTCAATCGCTACGTCGCCTTTCAGTGTCCTTTGACCTAGTTCGGC | 11.2 PBM z-score against 500 random probes
8 | NRC3_wobSeed30_DR1_C8T_o1 (dsDNA) DNA 1: GCACTAGTAGGCCAAGGGTCACTCAAGATTAGTCCGGCGATTGACAGCGTAGAATGAAGG DNA 2: CCTTCATTCTACGCTGTCAATCGCCGGACTAATCTTGAGTGACCCTTGGCCTACTAGTGC | 10.9 PBM z-score against 500 random probes
9 | NRC3_wobSeed31_DR1_A13T_o1 (dsDNA) DNA 1: GCTCATATAGGTTAAAGGTGAAAGTCGGTGTGGTAAGCGATTGACAGCGTAGAATGAAGG DNA 2: CCTTCATTCTACGCTGTCAATCGCTTACCACACCGACTTTCACCTTTAACCTATATGAGC | 10.8 PBM z-score against 500 random probes
10 | NRC3_wobSeed49_DR2_T26G_o1 (dsDNA) DNA 1: GCCAAACTAGGTCAAGAGGTCAAAGGCCGCTTCCCGGCGATTGACAGCGTAGAATGAAGG DNA 2: CCTTCATTCTACGCTGTCAATCGCCGGGAAGCGGCCTTTGACCTCTTGACCTAGTTTGGC | 10.9 PBM z-score against 500 random probes
11 | NRC3_wobSeed49_DR2_A15C_o1 (dsDNA) DNA 1: GCCAAACTAGGTCACGAGGTCAAAGTCCGCTTCCCGGCGATTGACAGCGTAGAATGAAGG DNA 2: CCTTCATTCTACGCTGTCAATCGCCGGGAAGCGGACTTTGACCTCGTGACCTAGTTTGGC | 10.5 PBM z-score against 500 random probes
12 | NRC3_wobSeed73_DR3_A4T_o1 (dsDNA) DNA 1: GCCTAACTAGGTCACAGAGGTCAAAGTCCGTGCGTAGCGATTGACAGCGTAGAATGAAGG DNA 2: CCTTCATTCTACGCTGTCAATCGCTACGCACGGACTTTGACCTCTGTGACCTAGTTAGGC | 10.9 PBM z-score against 500 random probes
13 | NRC3_wobSeed42_DR1_A8T_o1 (dsDNA) DNA 1: GCTATACTGGGTCAAAGGCCAGAGTACGAATGTCGAGCGATTGACAGCGTAGAATGAAGG DNA 2: CCTTCATTCTACGCTGTCAATCGCTCGACATTCGTACTCTGGCCTTTGACCCAGTATAGC | 10.8 PBM z-score against 500 random probes
